Data from article PMC7960600, “A DARPin targeting activated Mac-1 is a novel diagnostic tool and potential anti-inflammatory agent in myocarditis, sepsis and myocardial infarction” (Basic Research in Cardiology, 2021).

Target: T1, human ICAM-1 (R&D Systems) (human, UniProt P05362 28-480)
T1 construct: ICAM-1, human, recombinant, bought; No catalogue number printed; also called recombinant human ICAM-1; source: bought: R&D Systems
Assay: ELISA; 96-well Maxisorb plates coated with 0.1 µM human or mouse ICAM-1 (or BSA, 30 µM); recombinant human or mouse αM I-domain added; anti-His-HRP, OD 450 nm
Conditions: both partners purified

T1 sequence (P05362 28-480): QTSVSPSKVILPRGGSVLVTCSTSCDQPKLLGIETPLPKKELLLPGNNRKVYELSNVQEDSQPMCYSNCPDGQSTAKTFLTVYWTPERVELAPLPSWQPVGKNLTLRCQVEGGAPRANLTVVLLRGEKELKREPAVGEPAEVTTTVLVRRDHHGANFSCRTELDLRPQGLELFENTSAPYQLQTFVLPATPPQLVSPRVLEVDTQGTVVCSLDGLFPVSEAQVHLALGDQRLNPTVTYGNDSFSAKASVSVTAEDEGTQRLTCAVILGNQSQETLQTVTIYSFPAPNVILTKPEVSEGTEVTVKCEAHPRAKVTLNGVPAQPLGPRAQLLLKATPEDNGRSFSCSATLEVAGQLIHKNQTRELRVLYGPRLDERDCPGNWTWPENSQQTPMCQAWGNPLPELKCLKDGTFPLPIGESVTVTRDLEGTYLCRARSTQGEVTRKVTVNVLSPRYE

binding result: binds
B1: recombinant human αM I-domain (wild type) (domain or fragment)
chain: RQQPQKFPEALRGCPQEDSDIAFLIDGSGSIIPHDFRRMKEFVSTVMEQLKKSKTLFSLMQYSEEFRIHFTFKEFQNNPNPRSLVKPITQLLGRTHTATGIRKVVRELFNITNGARKNAFKILVVITDGEKFGDPLGYEDVIPEADREGVIRYVIGVGDAFRSEKSRQELNTIASKPPRDHVFQVNNFEALKTIQNQLREKIFAIEGTQTGSSSSFEHEMSQEGFSAAALEHHHHHH
notes: I-domain of the αM chain (CD11b) of human Mac-1; no start methionine or leader is printed; source: E. coli BL21 DE3 (vector pET-20b(+)), purified (Ni beads, dialysed against PBS); not shown: His6, C-terminal, kept
